Assay results taken from patent US5928933A, “Process for the enzymatic resolution of N-(alkoxycarbonyl)-4-ketoproline alkyl esters or N-(alkoxycarbonyl)-4-hydroxyproline alkyl esters using Candida antarctica lipase B” (priority 1998, dated 1999).

B1: protease, type X: commercial enzyme preparation, source B. thermoproteoliticus rokko (protein, UniProt P00800 233-548, looked up)
Thermolysin: ITGTSTVGVGRGVLGDQKNINTTYSTYYYLQDNTRGNGIFTYDAKYRTTLPGSLWADADNQFFASYDAPAVDAHYYAGVTYDYYKNVHNRLSYDGNNAAIRSSVHYSQGYNNAFWNGSQMVYGDGDGQTFIPLSGGIDVVAHELTHAVTDYTAGLIYQNESGAINEAISDIFGTLVEFYANKNPDWEIGEDVYTPGISGDSLRSMSDPAKYGDPDHYSKRYTGTQDNGGVHINSGIINKAAYLISQGGTHYGVSVVGIGRDKLGKIFYRALTQYLTPTSNFSQLRAAAVQSATDLYGSTSQEVASVKQAFDAVGVK
B2: protease, type XXIV: commercial enzyme preparation, source bacterial (subtil. Carlsberg) (protein, UniProt P00780 106-379, looked up)
Subtilisin Carlsberg: AQTVPYGIPLIKADKVQAQGFKGANVKVAVLDTGIQASHPDLNVVGGASFVAGEAYNTDGNGHGTHVAGTVAALDNTTGVLGVAPSVSLYAVKVLNSSGSGSYSGIVSGIEWATTNGMDVINMSLGGASGSTAMKQAVDNAYAKGVVVVAAAGNSGSSGNTNTIGYPAKYDSVIAVGAVDSNSNRASFSSVGAELEVMAPGAGVYSTYPTNTYATLNGTSMASPHVAGAAALILSKHPNLSASQVRNRLSSTATYLGSSFYYGKGLINVEAAAQ
B3: protease, type XXVII: commercial enzyme preparation, (Nagarase) (protein, UniProt P00782 108-382, looked up)
Subtilisin BPN': AQSVPYGVSQIKAPALHSQGYTGSNVKVAVIDSGIDSSHPDLKVAGGASMVPSETNPFQDNNSHGTHVAGTVAALNNSIGVLGVAPSASLYAVKVLGADGSGQYSWIINGIEWAIANNMDVINMSLGGPSGSAALKAAVDKAVASGVVVVAAAGNEGTSGSSSTVGYPGKYPSVIAVGAVDSSNQRASFSSVGPELDVMAPGVSIQSTLPGNKYGAYNGTSMASPHVAGAAALILSKHPNWTNTQVRSSLENTTTKLGDSFYYGKGLINVQAAAQ
B4: protease (Chirazyme P1): commercial enzyme preparation, source Bacillus licheniformis (protein, UniProt P00780 106-379, looked up)
Subtilisin Carlsberg: B2 Subtilisin Carlsberg
B5: protease, trypsin porcine pancreas: commercial trypsin, source porcine pancreas (protein, UniProt P00761 9-231, looked up)
Trypsin: IVGGYTCAANSIPYQVSLNSGSHFCGGSLINSQWVVSAAHCYKSRIQVRLGEHNIDVLEGNEQFINAAKIITHPNFNGNTLDNDIMLIKLSSPATLNSRVATVSLPRSCAAAGTECLISGWGNTKSSGSSYPSLLQCLKAPVLSDSSCKSSYPGQITGNMICVGFLEGGKDSCQGDSGGPVVCNGQLQGIVSWGYGCAQKNKPGVYTKVCNYVNWIQQTIAAN

Columns and labels:
Type in all cases: biochemical
[1] = Enzyme screens for resolution of racemic N-(acetyl)-4-keto-D,L-proline methyl ester (Example 7, comparative); conditions: 0.100M racemate, 5 h, 5.0 to 30 mg/mL enzyme, 25° C.; for conv. (percent conversion of the racemate): 0.20M sodium succinate pH 6.0; for % ee (enantiomeric excess of the D-isomer): pH 6.0
Method: (§1) An aqueous solution (1.0 mL) containing 0.100M racemic N-(acetyl)-4-keto-D,L-proline methyl ester in 0.20M sodium succinate (pH 6.0) was mixed with 5.0 to 30 mg/mL of commercial enzyme preparations (listed in the table below) at 25° C. […] The dichloromethane extract was then analyzed by chiral gas chromatography on a Chiraldex G-TA column (Advanced Separation Technologies, Inc., 50 m×0.32 mm ID) to determine the percent conversion of the racemate, and the enantiomeric excess of the N-(acetyl)-4-keto-D-proline methyl ester.

[2] = Enzyme screens for resolution of diastereomeric mixture CHDP(MEMC)/THLP(MEMC) (Example 9); conditions: 0.050M each isomer, 5 h or 24 h, 5.0 to 50 mg/mL enzyme, 25° C.; for conv. (percent conversion of the diastereomeric mixture): 0.100M potassium phosphate pH 7.0; for % de (diastereomeric excess of the D-isomer, CHDP(MEMC)): pH 7.0
Method: (§2) An aqueous solution (1.0 mL) containing 0.050M N-(methoxycarbonyl)-trans-4-hydroxy-L-proline methyl ester and 0.050M N-(methoxycarbonyl)-cis-4-hydroxy-D-proline methyl ester in 0.100M potassium phosphate (pH 7.0) was mixed with 5.0 to 50 mg/mL of commercial enzyme preparations (listed in the table below) at 25° C. The reactions were analyzed after 5 h or 24 h by removal of a 0.200 mL sample and mixing with an equivalent volume of 0.100M propionic acid (HPLC internal standard) in water. The resulting solution was filtered through a 10K molecular weight cut-off filter to remove the enzyme and the filtrate analyzed by high pressure liquid chromatography on a HPX-87H column (Bio-Rad, 30 cm×7.8 mm) to determine the percent conversion of each isomer of the diastereomeric mixture, and the diastereomeric excess of the N-(methoxycarbonyl)-cis-4-hydroxy-D-proline methyl ester.

[3] = Enzyme screens for resolution of diastereomeric mixture CHLP(MEMC)/THLP(MEMC) (Example 13); conditions: 0.050M each isomer, 5 h, 5.0 to 50 mg/mL enzyme, 25° C.; for conv. (percent conversion of the diastereomeric mixture): 0.100M potassium phosphate pH 7.0; for % de (diastereomeric excess of the cis-L-isomer): pH 7.0
Method: as §2, with “solution” for “solution (1.0 mL)”, “N-(methoxycarbonyl)-cis-4-hydroxy-L-proline” for “N-(methoxycarbonyl)-cis-4-hydroxy-D-proline”, “5” for “5 h or 24”, “of” for “of each isomer of”

[4] = Enzyme screens for resolution of racemic N-(methoxycarbonyl)-4-keto-D,L-proline methyl ester (Example 1); conditions: 0.100M racemate, 5.0 to 50 mg/mL enzyme, 25° C., optimum; for conv. (percent conversion of the racemate): 0.20M sodium succinate pH 6.0, 5 h or 0.20M sodium acetate pH 5.0, 24 h; for % ee (enantiomeric excess of the D-isomer; L-isomer with porcine liver esterase): pH 6.0, 5 h or pH 5.0, 24 h
Method: An aqueous solution (1.0 mL) containing 0.100M racemic N-(methoxycarbonyl)-4-keto-D,L-proline methyl ester in either 0.20M sodium succinate (pH 6.0) or 0.20M sodium acetate (pH 5.0) was mixed with 5.0 to 50 mg/mL of commercial enzyme preparations (listed in the table below) at 25° C. […] The dichloromethane extract was then analyzed by chiral gas chromatography on a Chiraldex G-TA column (Advanced Separation Technologies, Inc., 50 m×0.32 mm ID) to determine the percent conversion of the racemate, and the enantiomeric excess of the N-(methoxycarbonyl)-4-keto-D-proline methyl ester.

[5] = Enzyme screens for resolution of racemic N-(methoxycarbonyl)-4,4-dimethoxy-D,L-proline methyl ester (Example 8, comparative); conditions: 0.100M racemate, 6 h or 17 h, 5.0 to 30 mg/mL enzyme, 25° C.; for conv. (percent conversion of the racemate): 0.25M potassium phosphate pH 7.0; for % ee (enantiomeric excess of the D-isomer): pH 7.0
Method: as §1, with “N-(methoxycarbonyl)-4,4-dimethoxy-D,L-proline” for “N-(acetyl)-4-keto-D,L-proline”, “0.25M potassium phosphate” for “0.20M sodium succinate”, “7.0)” for “6.0)”, “ethyl acetate” for “dichloromethane”, “N-(methoxycarbonyl)-4,4-dimethoxy-D-prolinemethyl” for “the N-(acetyl)-4-keto-D-proline methyl”

| Molecule | conv. (percent conversion of the racemate) [1] [%] | % ee (enantiomeric excess of the D-isomer) [1] [%] | conv. (percent conversion of the diastereomeric mixture) [2] [%] | % de (diastereomeric excess of the D-isomer, CHDP(MEMC)) [2] [%] | conv. (percent conversion of the diastereomeric mixture) [3] [%] | % de (diastereomeric excess of the cis-L-isomer) [3] [%] | conv. (percent conversion of the racemate) [4] [%] | % ee (enantiomeric excess of the D-isomer; L-isomer with porcine liver esterase) [4] [%] | conv. (percent conversion of the racemate) [5] [%] | % ee (enantiomeric excess of the D-isomer) [5] [%] |
| --- | --- | --- | --- | --- | --- | --- | --- | --- | --- | --- |
| protease, chymopapain: commercial enzyme preparation, source papaya latex | 0 | 0 | 0 | 0 | 0 | 0 | 0 | 0 |  |  |
| protease, pepsin: commercial enzyme preparation, source porcine stomach mucosa | 0 | 0 | 0 | 0 | 0 | 0 | 0 | 0 |  |  |
| B1 | 0 | 0 | 0 | 0 | 0 | 0 | 0 | 0 |  |  |
| B2 |  |  | 16 | 16 | 6 | 5 | 17 | 18 | 42 | 22 |
| B3 |  |  | 2 | 4 | 17 | 16 | 27 | 21 | 44 | 30 |
| B4 | 43 | 37 | 28 | 26 | 25 | 31 | 54 | 65 | 44 | 22 |
| B5 | 0 | 0 | 0 | 0 | 0 | 0 | 0 | 0 |  |  |
